Target: the molecule itself
Experiment: SEC

B1: P2 C repressor (immunity repressor of temperate Escherichia coli phage P2) (natural protein, bacteriophage P2, UniProt P04132 1-99, looked up)
chain: MSNTISEKIVLMRKSEYLSRQQLADLTGVPYGTLSYYESGRSTPPTDVMMNILQTPQFTKYTLWFMTNQIAPEFGQIAPALAHFGQNETTSPHSGQKTG
stoichiometry N: 2

Source: article PMC2995052 (Nucleic Acids Research, 2010)
